Data: publication PMC6952060

Biological target: Sulfolobus acidocaldarius soluble FlaF (sFlaF) (Sulfolobus acidocaldarius)
Assay: SEC

“Sulfolobus acidocaldarius soluble FlaF (sFlaF) (domain or fragment)” showed a stoichiometry N of 2.
